Data: patent US7354734B2, “Fungal proteins and nucleic acids encoding same” (priority 2003, dated 2008)
“Also recorded” adds a separate entry of the source.

Key:
[1] = format: biochemical; conditions: substrate Lys(Abz)Pro-PropNA 5 mM, 37° C., 60 min
[2] = system: denatured casein
[3] = system: Ala-proNPY; test: Digestion of Ala-proNPY; format: biochemical; conditions: conditions as for Gly-Ser-proNPY
Description: The digested material was isolated by RP-HPLC and characterized by ESI-MS. […] The same result is obtained at an 1:[…] ratio. Digestion halts when the enzyme reaches a Xaa-Pro-motif, which in case of proNPY is Tyr-Pro. Conditions of incubation were the same as for Gly-Ser-proNPY.

[4] = system: gliadin 33mer (fragment 57-89 of gliadin MM1); test: Digestion of gliadin 33mer (RP-HPLC, ESI-MS); format: biochemical, wheat; conditions: 37° C.
[5] = system: Gly-Ser-proNPY; test: Digestion of Gly-Ser-proNPY; format: biochemical; conditions: overnight 37° C., 1 mM CoCl2, E/S 1:20
Source text: The digested material was isolated by RP-HPLC and characterized by ESI-MS. […] The same result is obtained at an 1:[…] ratio. Digestion halts when the enzyme reaches a Xaa-Pro-motif, which in case of proNPY is Tyr-Pro.

[6] = system: gliadin 14mer PQPQLPYPQPQLPY (fragment 82-95 of α/β gliadin AIV); format: biochemical, wheat
[7] = format: biochemical

B1: ruLAP2: T. rubrum leucine aminopeptidase, 495 amino acid residues (SEQ ID NO: 3) (protein, listed as Trichophyton rubrum)
chain: MKSQLLSLAVAVTTISQGVVGQEPFGWPFKPMVTQDDLQNKIKLKDIMAGVEKLQSFSDAHPEKNRVFGGNGHKDTVEWIYNEIKATGYYDVKKQEQVHLWSHAEAALNANGKDLKASAMSYSPPASKIMAELVVAKNNGCNATDYPANTQGKIVLVERGVCSFGEKSAQAGDAKAAGAIVYNNVPGSLAGTLGGLDKRHVPTAGLSQEDGKNLATLVASGKIDVTMNVISLFENRTTWNVIAETKGGDHNNVIMLGAHSDSVDAGPGINDNGSGSIGIMTVAKALTNFKLNNAVRFAWWTAEEFGLLGSTFYVNSLDDRELHKVKLYLNFDMIGSPNFANQIYDGDGSAYNMTGPAGSAEIEYLFEKFFDDQGIPHQPTAFTGRSDYSAFIKRNVPAGGLFTGAEVVKTPEQVKLFGGEAGVAYDKNYHRKGDTVANINKGAIFLNTRAIAYAIAEYARSLKGFPTRPKTGKRDVNPQYSKMPGGGCGHHTVFM
- hydrolytic activity toward Lys(Abz)Pro-PropNA in comparison to Leu-MCA used as a standard [1]: 0.0%
- digestion of denatured casein [2]: sequentially digest
- removal of N-terminal alanine from Ala-proNPY [3]: almost totally removed
- digestion of gliadin 33mer, mixed with ruDPPIV ([4]; enzyme plus ruDPPIV (DPPIV)): totally digested; also recorded: same HPLC pattern
- degradation of gliadin 33mer, enzyme alone ([4]; within 4 h): less than 50%
- N-terminal cleavage of Gly-Ser-proNPY [5]: cleavage of the two N-terminal residues Gly-Ser
- digestion of gliadin 14mer, supplemented with ruDPPIV [6]: complete breakdown
- digestion of gliadin 14mer, enzyme alone ([6]; 4 h, 37° C.): not digested
- hydrolytic activity toward Asp-AMC ([7]; compared to Leu-AMC): efficiently cleaved; also recorded: efficiently hydrolyze
- hydrolytic activity toward Glu-AMC ([7]; compared to Leu-AMC): efficiently cleaved; also recorded: efficiently hydrolyze
- hydrolytic activity toward Pro-AMC ([7]; compared to Leu-AMC): more efficiently cleaved
- hydrolytic activity toward Ser-AMC ([7]; compared to Leu-AMC): more efficiently cleaved
- hydrolytic activity toward Ala-AMC in comparison to Leu-MCA used as a standard ([7]; substrate Ala-AMC 5 mM, 37° C., 60 min): 33.3%
- hydrolytic activity toward Arg-AMC in comparison to Leu-MCA used as a standard ([7]; substrate Arg-AMC 5 mM, 37° C., 60 min): 1.9%
- hydrolytic activity toward Asn-AMC in comparison to Leu-MCA used as a standard ([7]; substrate Asn-AMC 5 mM, 37° C., 60 min): 114.6%
- hydrolytic activity toward Asp-AMC in comparison to Leu-MCA used as a standard ([7]; substrate Asp-AMC 5 mM, 37° C., 60 min): 3.8%
- hydrolytic activity toward Cys-AMC in comparison to Leu-MCA used as a standard ([7]; substrate Cys-AMC 5 mM, 37° C., 60 min): 14.9%
- hydrolytic activity toward Gln-AMC in comparison to Leu-MCA used as a standard ([7]; substrate Gln-AMC 5 mM, 37° C., 60 min): 49.9%
- hydrolytic activity toward Glu-AMC in comparison to Leu-MCA used as a standard ([7]; substrate Glu-AMC 5 mM, 37° C., 60 min): 3.7%
- hydrolytic activity toward Gly-AMC in comparison to Leu-MCA used as a standard ([7]; substrate Gly-AMC 5 mM, 37° C., 60 min): 3.3%
- hydrolytic activity toward Gly-Pro-AMC in comparison to Leu-MCA used as a standard ([7]; substrate Gly-Pro-AMC 5 mM, 37° C., 60 min): 7.2%
- hydrolytic activity toward His-AMC in comparison to Leu-MCA used as a standard ([7]; substrate His-AMC 5 mM, 37° C., 60 min): 0.6%
- hydrolytic activity toward Hyp-AMC in comparison to Leu-MCA used as a standard ([7]; substrate Hyp-AMC 5 mM, 37° C., 60 min): 14.2%
- hydrolytic activity toward Ile-AMC in comparison to Leu-MCA used as a standard ([7]; substrate Ile-AMC 5 mM, 37° C., 60 min): 6.4%
- hydrolysis of Leu-AMC ([7]; substrate Leu-AMC): efficiently hydrolyzed; also recorded: common preference
- hydrolytic activity toward Leu-AMC in comparison to Leu-MCA used as a standard ([7]; substrate Leu-AMC 5 mM, 37° C., 60 min): 100.0%
- hydrolytic activity toward Lys-AMC in comparison to Leu-MCA used as a standard ([7]; substrate Lys-AMC 5 mM, 37° C., 60 min): 4.6%
- hydrolytic activity toward Met-AMC in comparison to Leu-MCA used as a standard ([7]; substrate Met-AMC 5 mM, 37° C., 60 min): 119.7%
- hydrolytic activity toward Phe-AMC in comparison to Leu-MCA used as a standard ([7]; substrate Phe-AMC 5 mM, 37° C., 60 min): 17.1%
- hydrolytic activity toward Pro-AMC in comparison to Leu-MCA used as a standard ([7]; substrate Pro-AMC 5 mM, 37° C., 60 min): 21.4%
- hydrolytic activity toward Pyr-AMC in comparison to Leu-MCA used as a standard ([7]; substrate Pyr-AMC 5 mM, 37° C., 60 min): 0.0%
- hydrolytic activity toward Ser-AMC in comparison to Leu-MCA used as a standard ([7]; substrate Ser-AMC 5 mM, 37° C., 60 min): 26.1%
- hydrolytic activity toward Thr-AMC in comparison to Leu-MCA used as a standard ([7]; substrate Thr-AMC 5 mM, 37° C., 60 min): 0.9%
- hydrolytic activity toward Val-AMC in comparison to Leu-MCA used as a standard ([7]; substrate Val-AMC 5 mM, 37° C., 60 min): 4.8%
